Experimental data from publication PMC4477937, “Alpha-2-Macroglobulin Is Acutely Sensitive to Freezing and Lyophilization: Implications for Structural and Functional Studies” (PLoS ONE, 2015).

How the values were obtained:
Creatine phosphokinase = Creatine phosphokinase (UniProt P00563 1-381); test: cell-based or functional assay
[1] = molecular target: the molecule itself; test: native gel or EMSA; native PAGE, NuPAGE 3–8% Tris-acetate, Tris-glycine running buffer, stained with InstantBlue; purified α2M after storage (4°C for months, -20°C, rapid freezing, lyophilization)

Chain of Creatine phosphokinase (P00563 whole entry): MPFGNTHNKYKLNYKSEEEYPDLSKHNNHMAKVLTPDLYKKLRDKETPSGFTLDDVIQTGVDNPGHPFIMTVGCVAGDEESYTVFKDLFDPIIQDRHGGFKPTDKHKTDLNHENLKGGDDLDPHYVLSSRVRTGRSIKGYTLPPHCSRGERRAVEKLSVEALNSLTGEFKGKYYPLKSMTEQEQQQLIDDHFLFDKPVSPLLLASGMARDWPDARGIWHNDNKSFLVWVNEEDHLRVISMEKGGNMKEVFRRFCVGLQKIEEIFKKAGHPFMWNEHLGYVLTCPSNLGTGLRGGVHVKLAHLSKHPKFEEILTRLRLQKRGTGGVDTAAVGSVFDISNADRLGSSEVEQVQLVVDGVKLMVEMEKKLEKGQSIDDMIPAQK

decrease in turbidity (absorbance at 595 nm) of CPK (5 μM) at 43°C over 8 hrs with α2M at a molar ratio of α2M-to-CPK of 1:15; α2M rapidly frozen in liquid nitrogen and stored at -20°C for 1 month (Creatine phosphokinase): ~50%
B1: Alpha-2-macroglobulin (natural protein, human, UniProt P01023 24-1474, looked up)
chain: SVSGKPQYMVLVPSLLHTETTEKGCVLLSYLNETVTVSASLESVRGNRSLFTDLEAENDVLHCVAFAVPKSSSNEEVMFLTVQVKGPTQEFKKRTTVMVKNEDSLVFVQTDKSIYKPGQTVKFRVVSMDENFHPLNELIPLVYIQDPKGNRIAQWQSFQLEGGLKQFSFPLSSEPFQGSYKVVVQKKSGGRTEHPFTVEEFVLPKFEVQVTVPKIITILEEEMNVSVCGLYTYGKPVPGHVTVSICRKYSDASDCHGEDSQAFCEKFSGQLNSHGCFYQQVKTKVFQLKRKEYEMKLHTEAQIQEEGTVVELTGRQSSEITRTITKLSFVKVDSHFRQGIPFFGQVRLVDGKGVPIPNKVIFIRGNEANYYSNATTDEHGLVQFSINTTNVMGTSLTVRVNYKDRSPCYGYQWVSEEHEEAHHTAYLVFSPSKSFVHLEPMSHELPCGHTQTVQAHYILNGGTLLGLKKLSFYYLIMAKGGIVRTGTHGLLVKQEDMKGHFSISIPVKSDIAPVARLLIYAVLPTGDVIGDSAKYDVENCLANKVDLSFSPSQSLPASHAHLRVTAAPQSVCALRAVDQSVLLMKPDAELSASSVYNLLPEKDLTGFPGPLNDQDNEDCINRHNVYINGITYTPVSSTNEKDMYSFLEDMGLKAFTNSKIRKPKMCPQLQQYEMHGPEGLRVGFYESDVMGRGHARLVHVEEPHTETVRKYFPETWIWDLVVVNSAGVAEVGVTVPDTITEWKAGAFCLSEDAGLGISSTASLRAFQPFFVELTMPYSVIRGEAFTLKATVLNYLPKCIRVSVQLEASPAFLAVPVEKEQAPHCICANGRQTVSWAVTPKSLGNVNFTVSAEALESQELCGTEVPSVPEHGRKDTVIKPLLVEPEGLEKETTFNSLLCPSGGEVSEELSLKLPPNVVEESARASVSVLGDILGSAMQNTQNLLQMPYGCGEQNMVLFAPNIYVLDYLNETQQLTPEIKSKAIGYLNTGYQRQLNYKHYDGSYSTFGERYGRNQGNTWLTAFVLKTFAQARAYIFIDEAHITQALIWLSQRQKDNGCFRSSGSLLNNAIKGGVEDEVTLSAYITIALLEIPLTVTHPVVRNALFCLESAWKTAQEGDHGSHVYTKALLAYAFALAGNQDKRKEVLKSLNEEAVKKDNSVHWERPQKPKAPVGHFYEPQAPSAEVEMTSYVLLAYLTAQPAPTSEDLTSATNIVKWITKQQNAQGGFSSTQDTVVALHALSKYGAATFTRTGKAAQVTIQSSGTFSSKFQVDNNNRLLLQQVSLPELPGEYSMKVTGEGCVYLQTSLKYNILPEKEEFPFALGVQTLPQTCDEPKAHTSFQISLSVSYTGSRSASNMAIVDVKMVSGFIPLKPTVKMLERSNHVSRTEVSSNHVLIYLDKVSNQTLSLFFTVLQDVPVRDLKPAIVKVYDYYETDEFAIAEYNAPCSKDLGNA
notes: alpha-2-macroglobulin, human, from blood plasma; 720 kDa homotetramer of four 180 kDa subunits, paired by disulfide bonds into dimers; Storage changes the conformation (native, transformed, dimers, higher molecular weight species); also called α2M; native α2M; source: purified from human blood plasma (Zn-charged HiTrap chelating column, Sephacryl S-300 gel filtration)
binding result [1]: binds
